# According to patent US20080187980A1, “Method for identifying potential agonists or antagonists using the three-dimensional structure of caspase-7” (Vertex Pharmaceuticals Incorporated, priority 1999, published 2008):
# T1: caspase-1 (Homo sapiens, UniProt P29466)
# T1 sequence (P29466 120-297 limits assumed): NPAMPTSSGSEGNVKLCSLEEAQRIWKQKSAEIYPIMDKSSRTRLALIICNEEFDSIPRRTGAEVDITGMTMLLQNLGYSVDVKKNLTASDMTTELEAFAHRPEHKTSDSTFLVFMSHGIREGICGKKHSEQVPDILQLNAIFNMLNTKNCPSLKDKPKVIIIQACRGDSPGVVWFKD
# T1 sequence (P29466 317-404 limits assumed): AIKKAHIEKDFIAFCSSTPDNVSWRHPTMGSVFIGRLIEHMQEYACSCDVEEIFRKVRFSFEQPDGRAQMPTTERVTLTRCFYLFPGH
# T2: caspase-7 (Homo sapiens, UniProt P55210)
# T2 sequence (P55210 24-198 limits assumed): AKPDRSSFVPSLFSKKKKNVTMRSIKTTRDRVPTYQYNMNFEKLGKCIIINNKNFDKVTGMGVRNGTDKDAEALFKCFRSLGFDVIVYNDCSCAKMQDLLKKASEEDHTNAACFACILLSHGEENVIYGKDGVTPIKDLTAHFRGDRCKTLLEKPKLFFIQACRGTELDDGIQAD
# T2 sequence (P55210 207-303 limits assumed): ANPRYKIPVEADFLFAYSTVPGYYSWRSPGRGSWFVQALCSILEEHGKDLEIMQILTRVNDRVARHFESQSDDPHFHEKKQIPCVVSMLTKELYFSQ
# T3: Caspase-4 (Homo sapiens, UniProt P49662)
# T3 sequence (P49662 81-270 limits assumed): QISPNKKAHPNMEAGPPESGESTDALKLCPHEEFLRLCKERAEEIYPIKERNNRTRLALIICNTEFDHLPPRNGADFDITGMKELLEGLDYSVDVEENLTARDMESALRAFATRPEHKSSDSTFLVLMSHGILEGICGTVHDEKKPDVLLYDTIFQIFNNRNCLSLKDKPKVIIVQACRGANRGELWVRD
# T3 sequence (P49662 290-377 limits assumed): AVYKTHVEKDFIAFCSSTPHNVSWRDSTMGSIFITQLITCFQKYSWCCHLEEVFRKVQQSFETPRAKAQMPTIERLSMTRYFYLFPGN
# T4: Caspase-5 (Homo sapiens, UniProt P51878)
# T4 sequence (P51878 137-327 limits assumed): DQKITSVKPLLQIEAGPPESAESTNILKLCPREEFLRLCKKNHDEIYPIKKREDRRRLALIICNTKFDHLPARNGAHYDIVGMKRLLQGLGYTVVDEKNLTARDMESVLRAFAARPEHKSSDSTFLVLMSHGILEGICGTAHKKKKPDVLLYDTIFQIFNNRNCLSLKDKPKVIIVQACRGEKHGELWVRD
# T4 sequence (P51878 347-434 limits assumed): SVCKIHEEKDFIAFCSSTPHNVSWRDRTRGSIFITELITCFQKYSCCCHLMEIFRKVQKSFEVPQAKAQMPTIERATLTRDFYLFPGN
# T5: Ac-DEVD-aminoemethylcoumarin
# T5 chain: DEVD
# Assays:
# caspase-1 = molecular target: T1, caspase-1; settings: cited from earlier work; for Ki: reported, Garcia-Calvo et al. 1998
# caspase-8 = caspase-8 (Homo sapiens, UniProt Q14790); settings: reported, Garcia-Calvo et al. 1998; cited from earlier work
# caspase-7 = molecular target: T2, caspase-7; settings: reported, Garcia-Calvo et al. 1998; cited from earlier work
# Caspase-4 = molecular target: T3, Caspase-4; settings: Garcia-Calvo et al. 1998; cited from earlier work
# Caspase-5 = molecular target: T4, Caspase-5; settings: Garcia-Calvo et al. 1998; cited from earlier work
# [1] = tested on: all other group II and group III caspases except caspase-8; settings: group II and group III caspases other than caspase-8; cited from earlier work
# group III caspases = settings: cited from earlier work
# [2] = molecular target: T5, Ac-DEVD-aminoemethylcoumarin
# Chain of caspase-8 (Q14790 217-374 limits assumed, one chain of several): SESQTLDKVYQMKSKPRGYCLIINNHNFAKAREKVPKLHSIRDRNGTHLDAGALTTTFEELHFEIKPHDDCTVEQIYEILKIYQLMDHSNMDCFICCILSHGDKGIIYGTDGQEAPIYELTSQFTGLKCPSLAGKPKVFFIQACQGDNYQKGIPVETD
molecule,measurement,setting,value
acetyl-Asp-Glu-Val-Asp-CHO [Ac-DEVD-CHO],Ki,caspase-1,18 nM
same,Ki,caspase-8,0.92 nM
same,Ki,caspase-7,1.6 nM
AcWEHD-CHO (Ac-WEHD-aldehyde; SMILES CC(=O)N[C@@H](Cc1c[nH]c2ccccc12)C(=O)N[C@@H](CCC(=O)O)C(=O)N[C@@H](Cc1c[nH]cn1)C(=O)N[C@H](C=O)CC(=O)O),Ki,Caspase-4,97 nM
same,Ki,caspase-1,0.056 nM
same,Ki,caspase-8,21 nM
same,Ki,Caspase-5,43 nM
same,inhibition of all other group II and group III caspases except caspase-8 (in words),[1],poor inhibitor
"Ac-YVAD-CHO: tetrapeptide aldehyde inhibitor, SEQ ID NO: 4",inhibitory potency against caspase-1 (in words),caspase-1,good inhibitory potency
same,inhibitory potency against group III caspases (in words),group III caspases,modest inhibitory potency
Wild-type caspase-8 (protein) chain 1: RGYCLIINNHNFAKAREKVPKLHSIRDRNGTHLDAGALTTTFEELHFEIKPHDDCTVEQIYEILKIYQLMDHSNMDCFICCILSHGDKGIIYGTDGQEAPIYELTSQFTGLKCPSLAGKPKVFFIQACQGDNYQKGIPVETD chain 2: LSSPQTRYIPDEADFLLGMATVNNCVSYRNPAEGTWYIQSLCQSLRERCPRGDDILTILTEVNYEVSNKDDKKNMGKQMPQPTFTLRKKLVFPSD,kcat/Km,[2],"both enzymes appear to be indistinguishable, yielding a kcat/Km of 1×10^5 Ml-s^1-^1"
"Triple mutant caspase-8 (residues 233-479; Lys to Arg at residues 246, 250 and 253; Pro370 and Val371 removed) (protein) RGYCLIINNHNFARARERVPRLHSIRDRNGTHLDAGALTTTFEELHFEIKPHDDCTVEQIYEILKIYQLMDHSNMDCFICCILSHGDKGIIYGTDGQEAPIYELTSQFTGLKCPSLAGKPKVFFIQACQGDNYQKGIPVETDSEEQPYLEMDLSSPQTRYIPDEADFLLGMATVNNCVSYRNPAEGTWYIQSLCQSLRERCPRGDDILTILTEVNYEVSNKDDKKNMGKQMPQPTFTLRKKLVFPSD",kcat/Km,[2],"both enzymes appear to be indistinguishable, yielding a kcat/Km of 1×10^5 Ml-s^1-^1"
